Source: patent publication US20220348651A1 (Novartis, published 2022)

T1: recombinant monomeric mouse ENTPD2 extracellular domain (residues 29-462) with His6 tag (mouse, UniProt O55026 29-462)
T1 sequence: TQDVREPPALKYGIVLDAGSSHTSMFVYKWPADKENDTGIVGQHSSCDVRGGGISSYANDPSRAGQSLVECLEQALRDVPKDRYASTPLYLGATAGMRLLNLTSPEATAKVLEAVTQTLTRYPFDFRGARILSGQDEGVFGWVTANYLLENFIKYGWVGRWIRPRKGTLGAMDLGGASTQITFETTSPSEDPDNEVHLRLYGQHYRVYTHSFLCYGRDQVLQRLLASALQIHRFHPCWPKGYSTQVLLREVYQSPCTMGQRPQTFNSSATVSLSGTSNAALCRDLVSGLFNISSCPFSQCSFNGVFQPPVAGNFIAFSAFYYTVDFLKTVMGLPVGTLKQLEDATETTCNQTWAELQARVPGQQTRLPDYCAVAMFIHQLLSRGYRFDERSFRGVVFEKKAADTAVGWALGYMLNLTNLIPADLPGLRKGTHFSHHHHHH

T2: cyno ENTPD2 expressed on NIH/3T3 cells (cynomolgus macaque, UniProt Q9Y5L3 1-495 (human entry))
T2 construct: also called NIH3T3 cynoENTPD2; Cyno ENTPD2 NIH/3T3
T2 chain: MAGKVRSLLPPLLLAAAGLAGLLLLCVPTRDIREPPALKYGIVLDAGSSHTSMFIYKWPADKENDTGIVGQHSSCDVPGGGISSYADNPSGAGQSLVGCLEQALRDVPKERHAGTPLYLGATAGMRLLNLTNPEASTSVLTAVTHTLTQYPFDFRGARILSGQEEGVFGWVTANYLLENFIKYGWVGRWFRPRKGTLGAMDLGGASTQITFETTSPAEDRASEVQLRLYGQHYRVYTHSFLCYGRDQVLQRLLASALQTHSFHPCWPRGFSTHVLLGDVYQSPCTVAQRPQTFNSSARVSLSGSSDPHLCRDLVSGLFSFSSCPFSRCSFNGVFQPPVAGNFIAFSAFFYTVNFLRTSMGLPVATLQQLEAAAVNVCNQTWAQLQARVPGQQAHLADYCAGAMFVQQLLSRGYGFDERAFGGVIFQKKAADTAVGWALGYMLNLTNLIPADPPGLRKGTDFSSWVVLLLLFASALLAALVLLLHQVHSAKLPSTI

T3: human ENTPD2 expressed on cells (human, UniProt Q9Y5L3 1-495)
T3 construct: full-length human ENTPD2 on engineered cells; also called NIH3T3 humanENTPD2; NIH/3T3-hENTPD2
T3 sequence: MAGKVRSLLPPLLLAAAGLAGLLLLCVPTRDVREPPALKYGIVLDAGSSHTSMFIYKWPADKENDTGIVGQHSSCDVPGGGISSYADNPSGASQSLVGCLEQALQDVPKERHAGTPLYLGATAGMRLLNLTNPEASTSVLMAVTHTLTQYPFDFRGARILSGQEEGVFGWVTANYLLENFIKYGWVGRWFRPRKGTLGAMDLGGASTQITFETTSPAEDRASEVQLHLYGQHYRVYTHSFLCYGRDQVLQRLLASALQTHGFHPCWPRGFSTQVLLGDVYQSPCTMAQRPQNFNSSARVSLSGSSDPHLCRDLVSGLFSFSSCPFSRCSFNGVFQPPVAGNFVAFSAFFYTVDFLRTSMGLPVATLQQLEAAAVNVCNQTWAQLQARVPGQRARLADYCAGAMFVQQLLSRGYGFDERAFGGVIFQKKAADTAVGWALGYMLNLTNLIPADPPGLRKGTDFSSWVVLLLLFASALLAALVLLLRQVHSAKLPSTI

T4: recombinant cyno ENTPD2 extracellular domain (residues 29-462) with C-terminal Avi-His6 tag (cynomolgus macaque, UniProt Q9Y5L3 29-462 (human entry))
T4 construct: also called cynomologus (cyno) ENTPD2 ECD
T4 chain (part 1 of 2): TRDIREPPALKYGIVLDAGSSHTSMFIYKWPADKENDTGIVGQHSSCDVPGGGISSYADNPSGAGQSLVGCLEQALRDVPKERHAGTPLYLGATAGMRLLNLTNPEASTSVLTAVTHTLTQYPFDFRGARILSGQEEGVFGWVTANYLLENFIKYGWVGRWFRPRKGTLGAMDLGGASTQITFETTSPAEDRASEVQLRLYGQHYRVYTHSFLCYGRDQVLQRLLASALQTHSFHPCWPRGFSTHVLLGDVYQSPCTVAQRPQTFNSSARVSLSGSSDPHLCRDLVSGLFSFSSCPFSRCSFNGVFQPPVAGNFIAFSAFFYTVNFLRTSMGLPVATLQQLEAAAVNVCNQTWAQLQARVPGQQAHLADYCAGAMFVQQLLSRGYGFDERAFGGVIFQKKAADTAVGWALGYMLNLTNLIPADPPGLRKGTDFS
T4 chain (part 2 of 2): HHHHHH


Tests used:
[1] = target: T1, recombinant monomeric mouse ENTPD2 …; assay: SPR Biacore
[2] = target: T2, cyno ENTPD2 expressed on NIH/3T3 cells; assay: flow cytometry, NIH3T3 cyno ENTPD2 cells
[3] = target: T3, human ENTPD2 expressed on cells; assay: flow cytometry, NIH3T3 human ENTPD2 cells
[4] = target: T5, recombinant human ENTPD2 extracellular domain (residues 29-462) with C-terminal Avi-His6 tag (human, UniProt Q9Y5L3 29-462, biotinylated on the AviTag in the epitope binning assay); assay: SPR Biacore, mAb captured, ECD analyte, 25C
T5 construct: also called human ENTPD2 ECD; Human ENTPD2-Avi-His6 protein
Protocol: (§1) Biacore Screening: Affinity was measured by determining the kinetic rate constants using surface plasmon resonance (SPR) on a Biacore T200 or T100 with the T200 sensitivity upgrade instrument (Biacore, GE Healthcare). Antibodies were captured on CM5 sensor chips (Biacore, GE Healthcare) prepared with a mouse anti-human IgG Fc antibody (ThermoFisher catalogue #05-4200) amine coupled to the surface. […] ENTPD2 analytes were allowed to associate for 180 s and dissociate for up to 1800 s depending on the off-rate of the antibody at a flow rate of 30 μL/min. The running buffer was PBS pH 7.2 (prepared from a Corning 10X stock, cat#46-013-CM)+0.05% Tween 20. […] The raw data were analyzed using Biacore T200 Evaluation Software version 1.0 and fit to a 1:1 binding model, with all parameters set to fit globally except for RI, which was set to fit locally.

[5] = target: T4, recombinant cyno ENTPD2 extracellular …; assay: SPR Biacore, mAb captured, ECD analyte, 25C
Protocol: as §1

[6] = target: T3, human ENTPD2 expressed on cells; assay: flow cytometry, RKO cells (endogenous ENTPD2)
Protocol: FACS screening: Specific binding of candidate antibodies to endogenously expressed ENTPD2 was assessed by flow cytometry. […] Geometric mean fluorescence intensity was calculated on live single cells using FlowJo software.

Kd [1]	EC50 [2]	EC50 [3]	Kd [4]	koff [4]	kon [4]	Kd [5]	koff [5]	kon [5]	EC50 [6]	binding result [1]	Binder
750 nM	1.3 nM	0.6 nM	0.9 nM	0.0003 s⁻¹	380000 M⁻¹ s⁻¹	20.9 nM	0.021 s⁻¹	990000 M⁻¹ s⁻¹	0.5 nM		ANTI-HUMAN ENTPD2 MAB9 (antibody, human IgG1, lambda, V domains shown, also called Anti-ENTPD2 mAb9) VH: QVQLVQSGAEVKKPGSSVKVSCKASGGTFDSYAVSWVRQAPGQGLEWMGRIVPWLGHTQYAQKFQGRVTITADESTSTAYMELSSLRSEDTAVYYCARESPGYRYSFDVWDQGTLVTVSS VL: SYELTQPLSVSVALGQTARITCSGDAIGEKYVYWYQQKPGQAPVLVIYDDNNRPSGIPERFSGSNSGNTATLTISRAQAGDEADYYCASYDLQQARWVFGGGTKLTVLG
	1.7 nM	0.8 nM	0.8 nM	0.00024 s⁻¹	340000 M⁻¹ s⁻¹	15.2 nM	0.018 s⁻¹	1.2e+06 M⁻¹ s⁻¹	0.6 nM	binds	ANTI-HUMAN ENTPD2 MAB10 (antibody, human IgG1, lambda, V domains shown, also called Anti-ENTPD2 mAb10) VH: QVQLVQSGAEVKKPGSSVKVSCKASGGTFDSYAVSWVRQAPGQGLEWMGRIVPWLGFTRYAQKFQGRVTITADESTSTAYMELSSLRSEDTAVYYCARESPGYRYSFDVWDQGTLVTVSS VL: SYELTQPLSVSVALGQTARITCSGDAIGEKYVYWYQQKPGQAPVLVIYDDNNRPSGIPERFSGSNSGNTATLTISRAQAGDEADYYCASYDLQQARWVFGGGTKLTVLG
